In paper PMC5837818 (Molecular cell, 2018):

Biological target: E. coli core RNAP enzyme (E. coli, UniProt P0A7Z4 1-329; P0A8V2 1-1342; P0A8T7 1-1407; P0A800 1-91)
Experiment: fluorescence polarisation

Chain of E. coli core RNAP enzyme (P0A7Z4 whole entry, chain 1 of 4): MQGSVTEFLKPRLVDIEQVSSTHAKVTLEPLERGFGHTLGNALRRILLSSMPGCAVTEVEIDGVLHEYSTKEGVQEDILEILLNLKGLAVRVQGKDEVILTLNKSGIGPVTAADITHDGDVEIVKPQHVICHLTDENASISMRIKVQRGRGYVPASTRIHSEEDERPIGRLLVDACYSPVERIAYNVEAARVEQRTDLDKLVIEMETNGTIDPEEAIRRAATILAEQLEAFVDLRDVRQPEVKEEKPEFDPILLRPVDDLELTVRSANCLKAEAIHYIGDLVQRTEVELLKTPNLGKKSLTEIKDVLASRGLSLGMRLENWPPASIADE
Chain of E. coli core RNAP enzyme (P0A8V2 whole entry, chain 2 of 4): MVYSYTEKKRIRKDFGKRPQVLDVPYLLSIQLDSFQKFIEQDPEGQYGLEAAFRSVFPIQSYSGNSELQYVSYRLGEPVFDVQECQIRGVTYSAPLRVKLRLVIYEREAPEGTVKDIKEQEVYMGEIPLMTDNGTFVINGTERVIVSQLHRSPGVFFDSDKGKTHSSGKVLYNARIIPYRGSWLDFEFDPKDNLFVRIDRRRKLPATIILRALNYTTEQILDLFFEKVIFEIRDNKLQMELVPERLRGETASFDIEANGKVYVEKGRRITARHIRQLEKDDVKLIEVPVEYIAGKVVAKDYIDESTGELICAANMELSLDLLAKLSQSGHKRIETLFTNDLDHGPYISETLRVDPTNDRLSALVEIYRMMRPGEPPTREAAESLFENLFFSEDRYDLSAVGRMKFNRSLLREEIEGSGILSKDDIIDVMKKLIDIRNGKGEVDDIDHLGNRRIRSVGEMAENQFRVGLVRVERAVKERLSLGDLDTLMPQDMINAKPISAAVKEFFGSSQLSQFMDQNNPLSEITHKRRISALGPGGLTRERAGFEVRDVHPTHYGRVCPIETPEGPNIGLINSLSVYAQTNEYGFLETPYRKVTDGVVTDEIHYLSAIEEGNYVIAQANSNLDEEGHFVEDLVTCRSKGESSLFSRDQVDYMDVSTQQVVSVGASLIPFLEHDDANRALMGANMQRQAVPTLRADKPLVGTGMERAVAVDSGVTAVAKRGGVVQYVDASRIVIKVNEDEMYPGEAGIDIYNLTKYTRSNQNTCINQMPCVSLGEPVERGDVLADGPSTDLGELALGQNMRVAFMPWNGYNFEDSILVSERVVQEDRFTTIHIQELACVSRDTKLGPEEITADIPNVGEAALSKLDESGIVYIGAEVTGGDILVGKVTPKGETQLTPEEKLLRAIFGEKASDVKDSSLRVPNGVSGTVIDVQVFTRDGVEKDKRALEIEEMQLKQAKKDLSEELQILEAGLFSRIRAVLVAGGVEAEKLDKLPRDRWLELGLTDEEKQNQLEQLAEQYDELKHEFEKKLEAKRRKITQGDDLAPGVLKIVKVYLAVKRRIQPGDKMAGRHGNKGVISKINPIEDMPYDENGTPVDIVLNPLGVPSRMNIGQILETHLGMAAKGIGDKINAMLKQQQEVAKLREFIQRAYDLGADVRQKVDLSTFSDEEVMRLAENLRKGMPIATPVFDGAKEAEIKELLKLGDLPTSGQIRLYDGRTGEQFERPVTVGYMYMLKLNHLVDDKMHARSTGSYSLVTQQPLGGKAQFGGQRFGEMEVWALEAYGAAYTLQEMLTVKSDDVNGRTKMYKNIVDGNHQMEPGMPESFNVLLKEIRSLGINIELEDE
Chain of E. coli core RNAP enzyme (P0A8T7 whole entry, chain 3 of 4): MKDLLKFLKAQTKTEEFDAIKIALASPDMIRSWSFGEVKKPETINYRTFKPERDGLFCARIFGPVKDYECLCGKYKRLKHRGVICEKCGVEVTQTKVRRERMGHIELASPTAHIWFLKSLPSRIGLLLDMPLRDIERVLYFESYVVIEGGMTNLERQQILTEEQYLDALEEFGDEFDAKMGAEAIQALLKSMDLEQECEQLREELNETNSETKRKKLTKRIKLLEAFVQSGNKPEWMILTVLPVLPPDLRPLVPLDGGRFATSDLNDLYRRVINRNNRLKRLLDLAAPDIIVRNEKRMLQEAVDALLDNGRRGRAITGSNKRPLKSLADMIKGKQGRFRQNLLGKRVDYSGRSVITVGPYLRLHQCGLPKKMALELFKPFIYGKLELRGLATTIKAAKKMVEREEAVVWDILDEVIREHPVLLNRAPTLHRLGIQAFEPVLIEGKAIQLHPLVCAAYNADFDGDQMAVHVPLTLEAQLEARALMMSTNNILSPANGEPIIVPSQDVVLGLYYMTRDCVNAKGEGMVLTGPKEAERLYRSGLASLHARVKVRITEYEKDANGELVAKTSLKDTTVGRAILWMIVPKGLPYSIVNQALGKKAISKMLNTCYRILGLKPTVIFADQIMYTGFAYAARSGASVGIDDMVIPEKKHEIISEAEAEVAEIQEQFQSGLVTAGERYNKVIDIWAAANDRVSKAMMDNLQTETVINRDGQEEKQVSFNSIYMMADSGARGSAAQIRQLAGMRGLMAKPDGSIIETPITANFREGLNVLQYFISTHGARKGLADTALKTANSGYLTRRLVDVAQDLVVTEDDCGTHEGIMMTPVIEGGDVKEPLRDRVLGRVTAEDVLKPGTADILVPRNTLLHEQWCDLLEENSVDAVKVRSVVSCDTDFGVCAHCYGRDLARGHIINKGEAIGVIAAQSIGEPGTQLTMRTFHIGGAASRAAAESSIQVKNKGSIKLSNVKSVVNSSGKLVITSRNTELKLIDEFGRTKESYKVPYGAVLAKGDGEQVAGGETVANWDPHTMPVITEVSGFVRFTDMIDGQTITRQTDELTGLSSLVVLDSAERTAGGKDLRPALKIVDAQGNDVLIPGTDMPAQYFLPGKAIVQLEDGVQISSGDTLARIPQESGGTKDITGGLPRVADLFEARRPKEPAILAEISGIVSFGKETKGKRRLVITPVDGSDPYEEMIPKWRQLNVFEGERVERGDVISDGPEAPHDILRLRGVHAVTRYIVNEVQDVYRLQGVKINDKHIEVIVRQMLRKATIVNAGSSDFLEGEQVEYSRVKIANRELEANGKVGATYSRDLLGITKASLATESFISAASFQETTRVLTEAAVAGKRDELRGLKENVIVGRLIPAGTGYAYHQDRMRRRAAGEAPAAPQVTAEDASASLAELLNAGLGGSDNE
Chain of E. coli core RNAP enzyme (P0A800 whole entry, chain 4 of 4): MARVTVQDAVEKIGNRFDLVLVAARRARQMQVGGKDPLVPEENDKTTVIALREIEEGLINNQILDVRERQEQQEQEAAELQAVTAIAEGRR

B1: BODIPY FL-labelled DksA with a cysteine substitution at position 35 (A35C) (natural protein, E. coli)
chain: MQEGQNRKTSSLSILAIAGVEPYQEKPGEEYMNECQLAHFRRILEAWRNQLRDEVDRTVTHMQDEAANFPDPVDRAAQEEEFSLELRNRDRERKLIKKIEKTLKKVEDEDFGYCESCGVEIGIRRLEARPTADLCIDCKTLAEIREKQMAG
modifications: BODIPY FL (maleimide) conjugated to the cysteine at position 35
Kd: 112 nM
